T1: human VPAC2 receptor (human, UniProt P41587 24-438)
T1 sequence (looked up): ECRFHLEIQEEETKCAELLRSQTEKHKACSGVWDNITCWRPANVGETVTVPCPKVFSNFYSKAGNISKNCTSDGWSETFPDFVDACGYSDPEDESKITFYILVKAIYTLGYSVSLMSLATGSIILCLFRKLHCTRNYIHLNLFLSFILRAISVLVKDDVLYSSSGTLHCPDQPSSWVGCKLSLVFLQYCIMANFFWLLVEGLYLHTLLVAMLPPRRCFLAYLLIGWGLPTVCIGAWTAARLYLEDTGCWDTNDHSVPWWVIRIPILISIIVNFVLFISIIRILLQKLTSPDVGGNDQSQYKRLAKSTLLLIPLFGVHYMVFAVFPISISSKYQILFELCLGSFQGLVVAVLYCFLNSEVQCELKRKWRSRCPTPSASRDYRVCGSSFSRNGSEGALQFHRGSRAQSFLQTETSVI

T2: rat VPAC1 receptor (rat, UniProt P30083 31-459)
T2 sequence (looked up): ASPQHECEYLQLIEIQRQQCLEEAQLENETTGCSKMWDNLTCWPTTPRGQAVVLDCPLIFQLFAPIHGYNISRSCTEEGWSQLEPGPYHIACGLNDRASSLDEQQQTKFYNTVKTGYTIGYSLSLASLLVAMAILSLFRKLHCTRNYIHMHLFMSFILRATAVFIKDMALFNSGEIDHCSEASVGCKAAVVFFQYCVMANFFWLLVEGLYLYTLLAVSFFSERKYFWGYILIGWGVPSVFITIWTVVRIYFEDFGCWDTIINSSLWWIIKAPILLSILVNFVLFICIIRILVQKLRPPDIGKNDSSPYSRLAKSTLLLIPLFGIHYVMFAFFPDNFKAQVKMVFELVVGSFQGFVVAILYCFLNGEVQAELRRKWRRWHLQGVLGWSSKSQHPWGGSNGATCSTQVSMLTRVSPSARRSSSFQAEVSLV

T3: rat VPAC2 receptor (rat, UniProt P35000 23-437)
T3 sequence (looked up): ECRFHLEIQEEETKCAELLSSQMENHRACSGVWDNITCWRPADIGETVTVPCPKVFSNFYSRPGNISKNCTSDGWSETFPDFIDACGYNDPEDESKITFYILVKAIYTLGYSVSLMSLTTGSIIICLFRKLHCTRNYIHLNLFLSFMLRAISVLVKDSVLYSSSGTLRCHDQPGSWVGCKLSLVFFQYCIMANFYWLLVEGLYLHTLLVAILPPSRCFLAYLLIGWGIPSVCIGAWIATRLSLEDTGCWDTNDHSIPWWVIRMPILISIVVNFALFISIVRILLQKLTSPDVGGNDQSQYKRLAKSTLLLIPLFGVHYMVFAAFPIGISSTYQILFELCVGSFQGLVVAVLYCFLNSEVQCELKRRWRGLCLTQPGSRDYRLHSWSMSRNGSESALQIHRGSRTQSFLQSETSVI

T4: human VPAC2 receptor (human), P41587
T4 chain: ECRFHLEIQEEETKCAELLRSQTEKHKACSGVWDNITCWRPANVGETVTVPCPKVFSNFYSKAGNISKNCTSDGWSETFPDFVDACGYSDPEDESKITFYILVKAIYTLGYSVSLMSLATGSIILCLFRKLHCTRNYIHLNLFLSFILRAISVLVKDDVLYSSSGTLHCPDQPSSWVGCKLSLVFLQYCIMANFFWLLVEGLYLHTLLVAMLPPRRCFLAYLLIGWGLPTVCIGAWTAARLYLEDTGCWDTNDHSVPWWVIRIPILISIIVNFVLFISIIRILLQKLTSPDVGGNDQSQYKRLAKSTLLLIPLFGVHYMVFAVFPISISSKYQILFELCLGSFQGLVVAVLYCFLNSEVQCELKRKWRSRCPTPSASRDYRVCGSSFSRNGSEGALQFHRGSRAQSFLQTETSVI


Columns and labels:
human VPAC2 receptor [1] = target: T1, human VPAC2 receptor; test: cell-based or functional assay
rat VPAC1 receptor = target: T2, rat VPAC1 receptor; test: cell-based or functional assay
rat VPAC2 receptor = target: T3, rat VPAC2 receptor; test: cell-based or functional assay
human VPAC2 receptor [2] = target: T1, human VPAC2 receptor; test: filter binding, VPAC2 cell membranes, displacement of 125I-VIP
Protocol: Binding assays: Membrane prepared from a stable VPAC2 cell line (see Example 3) or from cells transiently transfected with human VPAC1 or PAC1 are used.
The assay plate is filled with 25 μL assay buffer, 25 μL membranes (2.5 μg) suspended in assay buffer, 25 μL agonist in assay buffer, and 25 μL tracer (about 40000 cpm) in assay buffer. The filled plate is incubated for 1 hour with shaking.
The transfer from assay plate to filter plate is conducted. The blocking buffer is aspirated by vacuum filtration and washed two times with flush buffer. 90 μL is transferred from the assay plate to the filter plate. The 90 μL transferred from assay plate is aspirated and washed three times with 200 μL flush buffer. The plastic support is removed. It is dried for 1 hour at 60° C. 30 μL Microscint is added. The count is performed.

[3] = target: T4, human VPAC2 receptor (human), P41587; test: as above; conditions: remark: other sources report otherwise

Row | Binder | Human VPAC2 Receptor: Alphascreen (EC50; nM) (human VPAC2 receptor [1]) [nM] | Rat VPAC1 Receptor: DiscoveRx: (EC50; nM) (rat VPAC1 receptor) [nM] | Rat VPAC2 Receptor: DiscoveRx: (EC50; nM) (rat VPAC2 receptor) [nM] | IC50 (human VPAC2 receptor [2]) [nM] | Human VPAC2 Receptor: DiscoveRx (EC50; nM) (human VPAC2 receptor [1]) [nM] | IC50 [3] [nM]
1 | HSDAVFTEQYTXLRXQLAXXXYLQXIXXCGGPSSGAPPPC (C6-HSDAVFTEQY(OMe)TOrnLRAibQLAAbuAibOrnYLQAibIOrnOrnC(PEG20K)GGPSSGAPPPC(PEG20K)-NH2) [P580] | 10.9 | 1.1 | 11.9 | 20.7 |  | 
2 | HSDAVFTEQYTRXRXQLAAXXYLQSIKXXGGPSSGAPPPC (C6-HSDAVFTEQY(OMe)TRAibRAibQLAAAibOrnY(OMe)LQSIKAibOrnGGPSSGAPPPC(PEG40K)-NH2) [P417] | 14.7 | 232 | 8.7 | 24.1 |  | 
3 | HSDAVFTEQYTXLRXQLAXXXYLQXIXXGGPSSGAPPPCC (C6-HSDAVFTEQY(OMe)TOrnLRAibQLAAbuAibOrnY(OMe)LQAibIOrnOrnGGPSSGAPPPC(PEG20K)C(PEG20K)-NH2) [P574] | 21.2 | 163 | 33.8 | 32.3 | 36.1 | 
4 | HSDAVFTEQYTXLRXQLAXXXYXQSIXXGGPSSGAPPPCC (C6-HSDAVFTEQY(OMe)TOrnLRAibQLAAbuAibOrnYAibQSIOrnOrnGGPSSGAPPPC(PEG30K)C(PEG30K)-NH2) [P602] | 42.1 | 209 | 36.9 | 28 | 7.2 | 
5 | HSDAVFTEQYTXLRXQLXAXXYLQSIXXGGPSSGAPPPCC (C6-HSDAVFTEQY(OMe)TOrnLRAibQLAbuAAibOrnYLQSIOrnOrnGGPSSGAPPPC(PEG20K)C(PEG20K)-NH2) [P590] | 4.1 | 245 | 6.9 | 7.4 |  | 
6 | HSDAVFTEQYTXLRXQLAXXXYLQSIXXGGPSSGAPPPCC (C6-HSDAVFTEQY(OMe)TOrnLRAibQLAAbuAibOrnY(OMe)LQSIOrnOrnGGPSSGAPPPC(PEG20K)C(PEG20K)-NH2) [P582] | 20.3 | 137 | 31 | 48.3 |  | 
7 | HSDAVFTEQYTXLRXQXAAXXYLQSIXXGGPSSGAPPPS (here or on the partner: C6-HSDAVFTEQY(OMe)TOrnLRAibQK(WPEG40K)AAAibOrnYLQSIOrnOrnGGPSSGAPPPS-NH2) [P533] |  |  |  |  |  | 959
8 | HSDAVFTEQYTXLRXQVAAXCYLQSIXXGGPSSGAPPPS (C6-HSDAVFTEQY(OMe)TOrnLRAibQVAAAibC(PEG40K)YLQSIOrnOrnGGPSSGAPPPS-NH2) [P460] | 430 | > 1000 | 1160 | 914 |  | 

Reference: patent US20080234198A1 (Eli Lilly, published 2008)
